The results in this text go back to article PMC8872791, “MadR mediates acyl CoA-dependent regulation of mycolic acid desaturation in mycobacteria” (Proceedings of the National Academy of Sciences of the …, 2022).

This data set deals with T1, MadR (Mycobacterium tuberculosis H37Rv, UniProt P9WMD9 1-234).
T1 sequence: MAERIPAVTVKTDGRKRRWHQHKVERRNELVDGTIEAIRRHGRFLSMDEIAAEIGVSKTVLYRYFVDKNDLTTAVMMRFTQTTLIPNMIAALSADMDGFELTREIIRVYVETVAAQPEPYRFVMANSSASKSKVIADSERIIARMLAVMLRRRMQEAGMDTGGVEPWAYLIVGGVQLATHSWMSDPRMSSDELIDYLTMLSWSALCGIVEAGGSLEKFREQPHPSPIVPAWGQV
In words: EMSA. Conditions: protein: recombinant; tags: His-tag implied (pET28a, cobalt IMAC); chain copies: 2; blunt.

B1: desA2 control (substituted motif) (dsDNA)
DNA 1: TTCGAGAACGATGCAAATACGAAGGTATACTACCTCATGGTAATCAAACC
DNA 2: GGTTTGATTACCATGAGGTAGTATACCTTCGTATTTGCATCGTTCTCGAA
With B1, the binding result was “no binding”.

B2: desA1 control (substituted motif) (dsDNA)
DNA 1: CCGTTCGAGACGACTAATGAGGTGCAACAATATACGATCACCATCGGTA
DNA 2: TACCGATGGTGATCGTATATTGTTGCACCTCATTAGTCGTCTCGAACGG
B2: the binding result is on record as “no binding”.
